# Assay results: article PMC3884763
# Target: Cavernularia obesa green fluorescent protein (CoGFP), wild-type, with a histidine tag at the N-terminus (Cavernularia obesa)
# Experiment: SEC
substance,measurement,value
"Cavernularia obesa green fluorescent protein (CoGFP), wild-type, with a histidine tag at the N-terminus (natural protein)",stoichiometry N,2
